Earlier results as cited in PMC8020814.

Biological target: C3b C3b (Homo sapiens) (UniProt P01024)
Sequence of UniProt P01024 (P01024 566-670): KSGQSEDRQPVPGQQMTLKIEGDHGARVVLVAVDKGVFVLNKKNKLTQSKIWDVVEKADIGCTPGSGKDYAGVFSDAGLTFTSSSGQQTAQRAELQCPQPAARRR

**Q.** Which Kd does the source give for Factor H FH(1-4) (from UniProt P08603) here?
**A.** 11 µM
